T1: HA-tagged R100S/R101E striatin (human, UniProt O43815 1-780, R100S | R101E)
T1 construct: striatin, human, double point mutant in the coiled-coil domain; source: HEK293, transfected, in lysate; not shown: HA, N-terminal, kept
T1 sequence (looked up): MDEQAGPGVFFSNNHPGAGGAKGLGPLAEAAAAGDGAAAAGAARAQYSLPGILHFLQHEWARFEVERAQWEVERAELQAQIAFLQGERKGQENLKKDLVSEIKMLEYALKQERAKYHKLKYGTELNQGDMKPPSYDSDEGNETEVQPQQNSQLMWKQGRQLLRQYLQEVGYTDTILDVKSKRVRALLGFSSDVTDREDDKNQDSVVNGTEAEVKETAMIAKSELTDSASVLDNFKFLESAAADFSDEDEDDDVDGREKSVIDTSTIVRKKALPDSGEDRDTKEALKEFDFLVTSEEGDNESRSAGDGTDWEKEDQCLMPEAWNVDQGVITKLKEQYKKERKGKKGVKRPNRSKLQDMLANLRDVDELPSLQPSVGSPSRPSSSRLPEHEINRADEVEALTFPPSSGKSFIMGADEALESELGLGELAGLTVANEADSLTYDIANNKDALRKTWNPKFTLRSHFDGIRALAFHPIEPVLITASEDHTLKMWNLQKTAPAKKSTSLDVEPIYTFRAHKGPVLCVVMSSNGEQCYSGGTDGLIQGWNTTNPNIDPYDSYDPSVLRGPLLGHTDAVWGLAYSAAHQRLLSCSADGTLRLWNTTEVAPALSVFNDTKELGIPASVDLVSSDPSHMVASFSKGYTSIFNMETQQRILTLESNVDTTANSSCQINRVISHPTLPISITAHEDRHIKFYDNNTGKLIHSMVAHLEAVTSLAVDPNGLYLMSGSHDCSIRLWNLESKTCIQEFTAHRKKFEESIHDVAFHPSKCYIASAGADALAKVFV

T2: HA-tagged striatin with deletion of residues 191-269 (human, UniProt O43815 1-780, deletion of residues 191-269)
T2 construct: source: HEK293 or HEK293 stably expressing FLAG-CCM3, transfected, in lysate; not shown: HA, N-terminal, kept
T2 sequence (looked up): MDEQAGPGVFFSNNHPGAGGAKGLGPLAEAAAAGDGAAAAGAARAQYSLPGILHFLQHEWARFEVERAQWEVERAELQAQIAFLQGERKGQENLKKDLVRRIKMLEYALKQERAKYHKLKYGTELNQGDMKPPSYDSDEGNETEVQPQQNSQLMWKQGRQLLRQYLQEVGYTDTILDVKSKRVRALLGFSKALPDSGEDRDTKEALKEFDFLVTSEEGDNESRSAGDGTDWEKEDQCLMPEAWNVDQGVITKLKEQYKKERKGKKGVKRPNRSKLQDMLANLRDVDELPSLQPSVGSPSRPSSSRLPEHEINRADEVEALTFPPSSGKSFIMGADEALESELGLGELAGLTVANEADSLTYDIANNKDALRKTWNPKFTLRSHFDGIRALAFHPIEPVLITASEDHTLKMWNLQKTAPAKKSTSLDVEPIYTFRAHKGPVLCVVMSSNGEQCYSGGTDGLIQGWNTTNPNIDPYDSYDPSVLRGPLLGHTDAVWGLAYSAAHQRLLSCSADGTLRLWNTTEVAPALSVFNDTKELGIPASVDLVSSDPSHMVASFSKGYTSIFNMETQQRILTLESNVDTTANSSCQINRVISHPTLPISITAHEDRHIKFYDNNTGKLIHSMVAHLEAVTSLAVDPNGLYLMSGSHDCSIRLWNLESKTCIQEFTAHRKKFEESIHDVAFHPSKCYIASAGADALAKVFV

T3: HA-tagged Δ(148-166) striatin (human, UniProt O43815 1-780, Δ(148-166))
T3 construct: source: HEK293, transfected, in lysate; not shown: HA, N-terminal, kept
T3 sequence (looked up): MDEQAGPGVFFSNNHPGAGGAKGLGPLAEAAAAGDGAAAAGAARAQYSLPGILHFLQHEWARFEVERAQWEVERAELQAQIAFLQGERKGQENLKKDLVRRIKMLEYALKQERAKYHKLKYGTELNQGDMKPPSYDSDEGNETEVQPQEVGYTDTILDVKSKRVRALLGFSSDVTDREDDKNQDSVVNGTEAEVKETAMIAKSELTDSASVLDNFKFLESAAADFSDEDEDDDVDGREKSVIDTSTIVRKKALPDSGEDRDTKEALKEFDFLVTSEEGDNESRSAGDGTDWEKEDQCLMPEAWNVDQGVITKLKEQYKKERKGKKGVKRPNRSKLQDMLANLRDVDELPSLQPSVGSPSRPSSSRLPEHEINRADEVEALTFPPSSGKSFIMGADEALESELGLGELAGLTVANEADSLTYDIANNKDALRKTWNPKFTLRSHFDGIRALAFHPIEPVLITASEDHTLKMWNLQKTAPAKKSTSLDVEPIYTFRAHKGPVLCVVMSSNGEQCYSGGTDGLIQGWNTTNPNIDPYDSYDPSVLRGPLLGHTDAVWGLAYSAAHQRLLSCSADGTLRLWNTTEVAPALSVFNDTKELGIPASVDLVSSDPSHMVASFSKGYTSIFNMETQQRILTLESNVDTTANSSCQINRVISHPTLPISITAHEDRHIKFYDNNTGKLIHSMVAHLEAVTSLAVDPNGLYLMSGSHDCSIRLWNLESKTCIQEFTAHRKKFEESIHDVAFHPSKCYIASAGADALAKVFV

T4: HA-tagged Δ(227-309) striatin (human, UniProt O43815 1-780, Δ(227-309))
T4 construct: source: HEK293, transfected, in lysate; not shown: HA, N-terminal, kept
T4 sequence (looked up): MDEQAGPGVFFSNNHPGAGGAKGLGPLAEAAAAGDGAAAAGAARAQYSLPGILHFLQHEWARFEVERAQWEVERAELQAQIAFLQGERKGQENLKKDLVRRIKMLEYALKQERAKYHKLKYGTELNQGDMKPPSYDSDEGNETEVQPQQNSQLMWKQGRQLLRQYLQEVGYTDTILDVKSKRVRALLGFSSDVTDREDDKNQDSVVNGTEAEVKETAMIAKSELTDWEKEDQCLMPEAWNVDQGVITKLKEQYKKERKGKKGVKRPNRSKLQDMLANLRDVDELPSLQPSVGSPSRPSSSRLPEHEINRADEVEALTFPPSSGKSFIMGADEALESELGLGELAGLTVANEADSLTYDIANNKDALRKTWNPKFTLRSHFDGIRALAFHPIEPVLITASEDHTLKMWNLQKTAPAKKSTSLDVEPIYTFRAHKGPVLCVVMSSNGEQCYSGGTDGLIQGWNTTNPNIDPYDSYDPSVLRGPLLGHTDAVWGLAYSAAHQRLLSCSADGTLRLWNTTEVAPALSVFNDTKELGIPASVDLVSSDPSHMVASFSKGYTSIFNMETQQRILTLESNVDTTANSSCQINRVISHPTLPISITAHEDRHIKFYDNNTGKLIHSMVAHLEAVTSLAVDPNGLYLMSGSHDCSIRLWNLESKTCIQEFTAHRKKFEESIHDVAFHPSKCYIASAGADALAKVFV

T5: HA-tagged Δ(270-344) striatin (human, UniProt O43815 1-780, Δ(270-344))
T5 construct: source: HEK293 or HEK293 stably expressing FLAG-CCM3, transfected, in lysate; not shown: HA, N-terminal, kept
T5 sequence (looked up): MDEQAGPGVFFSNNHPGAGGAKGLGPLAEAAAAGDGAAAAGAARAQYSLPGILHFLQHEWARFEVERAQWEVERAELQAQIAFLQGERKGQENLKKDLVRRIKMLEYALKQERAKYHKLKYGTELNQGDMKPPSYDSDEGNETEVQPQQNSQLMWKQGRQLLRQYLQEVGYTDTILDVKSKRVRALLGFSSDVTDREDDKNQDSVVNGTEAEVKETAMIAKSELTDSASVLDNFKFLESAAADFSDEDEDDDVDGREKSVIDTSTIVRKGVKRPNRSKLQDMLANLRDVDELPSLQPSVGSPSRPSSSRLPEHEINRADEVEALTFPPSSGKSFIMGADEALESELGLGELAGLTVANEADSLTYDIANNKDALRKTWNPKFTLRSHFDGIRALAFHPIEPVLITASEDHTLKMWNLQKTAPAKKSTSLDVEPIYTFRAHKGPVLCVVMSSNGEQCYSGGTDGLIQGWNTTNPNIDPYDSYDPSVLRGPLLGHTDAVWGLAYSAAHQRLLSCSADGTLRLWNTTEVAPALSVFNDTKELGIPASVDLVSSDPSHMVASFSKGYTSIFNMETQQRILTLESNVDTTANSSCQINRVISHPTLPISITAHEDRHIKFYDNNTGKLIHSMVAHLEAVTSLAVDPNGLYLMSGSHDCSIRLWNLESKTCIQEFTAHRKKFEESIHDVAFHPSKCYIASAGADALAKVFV


Experiments:
Assay in all cases: co-IP; anti-HA immunoprecipitates (12CA5 with protein A-Sepharose, or F7 anti-HA-agarose when probing for Mst3 or Mst4; 1.5 h, 4°C) of lysates (1% Nonidet P-40, 0.135 M NaCl, 10% glycerol, 20 mM Tris pH 8.0) of HEK293 cells transfected with HA-striatins; endogenous partners by immunoblot, partner/HA-striatin ratio by chemilumimager against wild type; 50 mM NaF and 100 nM okadaic acid in the lysis buffer in the …
Conditions in all cases: partners not purified
[1] = molecular target: T1, HA-tagged R100S/R101E striatin
[2] = molecular target: T2, HA-tagged striatin with deletion of …
[3] = molecular target: T3, HA-tagged Δ(148-166) striatin
[4] = molecular target: T4, HA-tagged Δ(227-309) striatin
[5] = molecular target: T5, HA-tagged Δ(270-344) striatin

Mst4 kinase, sequence (Q9P289 whole entry): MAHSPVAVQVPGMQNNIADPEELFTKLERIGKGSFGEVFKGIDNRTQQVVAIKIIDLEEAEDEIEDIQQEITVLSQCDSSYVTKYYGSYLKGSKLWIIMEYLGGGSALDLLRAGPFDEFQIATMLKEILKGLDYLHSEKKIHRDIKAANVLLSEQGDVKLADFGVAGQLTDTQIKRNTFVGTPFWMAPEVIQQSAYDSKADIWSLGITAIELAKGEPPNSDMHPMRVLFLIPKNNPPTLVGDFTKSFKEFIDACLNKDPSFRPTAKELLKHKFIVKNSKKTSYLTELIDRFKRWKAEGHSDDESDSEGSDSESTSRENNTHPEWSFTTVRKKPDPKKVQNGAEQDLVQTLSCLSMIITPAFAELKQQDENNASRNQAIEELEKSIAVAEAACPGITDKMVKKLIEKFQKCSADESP

Row | percent of the wild-type level bound [1] | percent reduction in binding against wild-type striatin [2] [%] | fold binding against wild-type striatin [3] [fold] | percent reduction in binding against wild-type striatin [4] [%] | percent reduction in binding against wild-type striatin [5] [%] | Binder
1 | 81 % of wild-type level | – | – | – | – | S/G2 nuclear autoantigen (SG2NA) (natural protein, human (endogenous in HEK293), UniProt Q13033 1-797, looked up, SG2NA, striatin family member, endogenous in HEK293 cells; source: endogenous, HEK293 lysate) MDELAGGGGGGPGMAAPPRQQQGPGGNLGLSPGGNGAAGGGGPPASEGAGPAAGPELSRPQQYTIPGILHYIQHEWARFEMERAHWEVERAELQARIAFLQGERKGQENLKKDLVRRIKMLEYALKQERAKYHKLKYGTELNQGDLKMPTFESEETKDTEAPTAPQNSQLTWKQGRQLLRQYLQEVGYTDTILDVRSQRVRSLLGLSNSEPNGSVETKNLEQILNGGESPKQKGQEIKRSSGDVLETFNFLENADDSDEDEENDMIEGIPEGKDKHRMNKHKIGNEGLAADLTDDPDTEEALKEFDFLVTAEDGEGAGEARSSGDGTEWDKDDLSPTAEVWDVDQGLISKLKEQYKKERKGKKGVKRANRTKLYDMIADLGDDELPHIPSGIINQSRSASTRMTDHEGARAEEAEPITFPSGGGKSFIMGSDDVLLSVLGLGDLADLTVTNDADYSYDLPANKDAFRKTWNPKYTLRSHFDGVRALAFHPVEPVLVTASEDHTLKLWNLQKTVPAKKSASLDVEPIYTFRAHIGPVLSLAISSNGEQCFSGGIDATIQWWNMPSPSVDPYDTYEPNVLAGTLVGHTDAVWGLAYSGIKNQLLSCSADGTVRLWNPQEKLPCICTYNGDKKHGIPTSVDFIGCDPAHMVTSFNTGSAVIYDLETSQSLVILSSQVDSGLQSNNHINRVVSHPTLPVTITAHEDRHIKFFDNKTGKMIHSMVAHLDAVTSLAVDPNGIYLMSGSHDCSIRLWNLDSKTCVQEITAHRKKLDESIYDVAFHSSKAYIASAGADALAKVFV
2 | – | ~33 | ~3.5 | – | – | mammalian Ste20-like kinase Mst3 (enzyme, Mst3 kinase, endogenous in HEK293 cells; Runs as a lower and an upper (hyperphosphorylated) band; both are found with striatin; source: endogenous, HEK293 lysate) not shown
3 | – | 33 | ~4 | 38 | 75 | Mst4 kinase (enzyme, Mst4 kinase, endogenous in HEK293 cells; source: endogenous, HEK293 lysate) not shown
